Measured values: the DeepSol protein solubility set

Test: soluble on expression in E. coli; label from the status in PepcDB or PDB records
With “MSLRIKDIARLANVSVGTVDRVLHGRSGVSEASRKRVEEILKQLDYQPNMYASALASNKKYTFACLLPKHLEGEYWTDVQKGIREAVTTYSDFNISANITHYDPYDYNSFVATSQAVIEEQPDGVMFAPTVPQYTKGFTDALNELGIPYIYIDSQIKDAPPLAFFGQNSHQSGYFAARMLMLLAVNDREIVIFRKIHEGVIGSNQQESREIGFRQYMQEHHPACNILELNLHADLNIEDSRMLDDFFREHPDVKHGITFNSKVYIIGEYLQQRRKSDFSLIGYDLLERNVTCLKEGTVSFLIAQQPELQGFNSIKTLCDHLIFRKEVACTNYMPIDLLTKENIDYYHSEGHHHHHH” the “soluble on expression in E. coli” value was “soluble”. For “MAVTKELLQMDLYALLGIEEKAADKEVKKAYRQKALSCHPDKNPDNPRAAELFHQLSQALEVLTDAAARAAYDKVRKAKKQAAERTQKLDEKRKKVKLDLEARERQAQAQESEEEEESRSTRTLEQEIERLREEGSRQLEEQQRLIREQIRQERDQRLRGKAENTEGQGTPKLKLKWKCKKEDESKGGYSKDVLLRLLQKYGEVLNLVLSSKKPGTAVVEFATVKAAELAVQNEVGLVDNPLKISWLEGQPQDAVGRSHSGLSKGSVLSERDYESLVMMRMRQAAERQQLIARMQQEDQEGPPT”, the “soluble on expression in E. coli” value was “soluble”. With “MIIYKDIFSNDELLSDAYDAKLVDDVIYEADCAMVNVGGDNIDIGANPSAEGGDDDVEEGAEMVNNVVHSFRLQQTAFDKKSFLTYIKGYMKAVKAKLQETNPEEVPKFEKGAQTYVKKVIGSFKDWEFFTGESMDPDAMVVMLNYREDGTTPFVAIWKHGIVEEKI” the “soluble on expression in E. coli” value was “soluble”. With “TTTVGLVCKDGVVMATEKRATMGNFIASKAAKKIYQIADRMAMTTAGSVGDAQFLARIIKIEANLYEIRRERKPTVRAIATLTSNLLNSYRYFPYLVQLLIGGIDSEGKSIYSIDPIGGAIEEKDIVATGSGSLTAYGVLEDRFTPEIGVDEAVELAVRAIYSAMKRDSASGDGIDVVKITEDEFYQYSPEEVEQILAKFRK” the “soluble on expression in E. coli” value was “soluble”. With “MKRYRTLLFDVDDTILDFQAAEALALRLLFEDQNIPLTNDMKAQYKTINQGLWRAFEEGKMTRDEVVNTRFSALLKEYGYEADGALLEQKYRRFLEEGHQLIDGAFDLISNLQQQFDLYIVTNGVSHTQYKRLRDSGLFPFFKDIFVSEDTGFQKPMKEYFNYVFERIPQFSAEHTLIIGDSLTADIKGGQLAGLDTCWMNPDMKPNVPEIIPTYEIRKLEELYHILN” the “soluble on expression in E. coli” value was “not soluble”. In the case of “GAMGNNLVETTCKNTPNYQLCLKTLLSDKRSATGDITTLALIMVDAIKAKANQAAVTISKLRHSNPPAAWKGPLKNCAFSYKVILTASLPEAIEALTKGDPKFAEDGMVGSSGDAQECEEYFKGSKSPFSALNIAVHELSDVGRAIVRNLL”, the “soluble on expression in E. coli” value is reported as “soluble”. For “MGSDKIHHHHHHMDSLGEQPSNRAPVITISSGRYLAQIATYGGGIKSLTYDGRPLVETYPDDAFPPLNAGVVLAPWPNRTDAGAYDFQGQSYQLPITEPDRNNAIHGFVANAVWNIDLIRPARVILSTTIEPQQGWPWAIELAADYLLTDSGLRAQFTATTPHEAVPFGFGWHTYLSAQGAEVDKTTLRVGVDKQWMLDDRNLPTGELVQPTNDVSGGLPMAGKLLDDCFLAERTPVTTVLESQGVGVSMHCSEQFPWFQIFTPDPAWEMPYPGRGRSVAVEPMTTSPNGLNLGIDTIGAASPWHGTITISAYNKHS”, the “soluble on expression in E. coli” value was “not soluble”. For “MSLRKASVFIVELKFEQESCPLGVVIPLEESKNKLASVKPLVDLTRADMEQVNQLILSRAGSDVQMIPEVANHLISSGGKRLRPMLTLASASMFGYEGDHHIKLATSVEFMHTATLLHDDVVDESDLRRGKSTARTIWGNQASVLVGDFLLGQAFRMMVDVGSLDALDVLSTAASVIAEGEVLQLSVAKNMETTEDDYLQVIRAKTAALFAAAAEVGPIVAKTDKASRSALKSYGMNLGLAFQLVDDVLDYGGKSADLGKNTGDDFREGKITLPVILSYRRGTQDERAFWRNAIENGESSDENLEKALGLITKYNGLGDTIGRATHYGTIARDALAPLPESPWKNALLEVIDFCIERLNEGHHHHHH”, the “soluble on expression in E. coli” value was “soluble”. For “ASKPVEPAKPAEPTKVEFEEKQGKRGVKLGTVAIILSIIFGGGLAYKLHEQQADYQAQIAQLQNQLEKAQASMKQELNQVKEETIEKATTVTHKAEVVLGQQQKSIESLQLAVADVKGRRPNDWLLAEADYLVKLAGRKLFLEHDVESATQLMESADQRIAALNDPSLVKLRKAMANDITKLRTVPLIDRDGLVLRLTALQQQVDKLPLANALLPEAQVVAQHEVSEDISNWQDNLMTSLKDFSENFITFRTRDGNVIPLLSPEQHFYLKENIKAKLETAIKAVYQEQGEIYTTSLTTADKWAMAFFNQDDNAVKEFNKALNQLSQQNIQVEYPAKLESQSQLSDVIRERLRREVTTMTGTGDK”, the “soluble on expression in E. coli” value was “not soluble”. For “MGSDKIHHHHHHMLRKSLILVLTGALTGLFSSISQGAETLSVATDAIAADFYPATQAGPQYGVLVLGGAEGGKPESLAKAIAHEGHPVLSLAYFNDKGLPQELEQIPLEYFAKAKVWLLNQANVRQDGLILVGWSKGAELSLLLASQDPLFSKVVAIAPSSVIWAGFLKDWTKTPSSSWTQGGKALDFVPFRPTGEVKGLLDLYSQSLQNAKAGQGRIPVENIKGDVVLLTGSNDEIWPSNLMAKALCQRMDTAGTQGSCTHINFEGLDHLLGEKFLDSNDAMHKQFMGFLEAE”, the “soluble on expression in E. coli” value was “not soluble”. In the case of “MMISIFSLLASTAILVFANGQSNVKLEFVQAMWRHGERASQVDQYPIYEKDWIYGGGGLGELTAIGMGEMNELGWLIRKRYVTKLKFLTPKYASREVYFRSTNFNRTIISAQSLLYGLFPPSLYDVKNVDYPYSPLTWFPGFTFVPVHVDGPDQCAASQNCPCTRYDLLQGQMLTLPEVLPKYTQVVLLNRRVGGYYNMTSGLDSFTTYPDTWKCQRAYFNRTMYAKLPWYNEELYYQAQVTYAPVKGFLEGNFENPAVTSSGLDVGLEIKKVRSGVIINEVFNRANEKLNCAELGQNCTSYLNKLKFYGYSIHDNNVYGVLVALGIPQIANTLDGWPAYAAGIFMEFHRNTSTNERFFKVLYREGDDTPISDVTSQLPICNGATLCPLGALQTLAETLKPLPDITTLCKTPL”, the “soluble on expression in E. coli” value is reported as “not soluble”. In the case of “MDAGDASRLGESLDAVSAAFQSRVMELQELVLARNMYPATAIPDLAAVDVSLTAMEAQLQAVRRRLQEEREAFPKAKKLVQQSLKQQRRLQLMLANMPTGMREDVFATPLEHNSSMMFPESLNFSSAVPEVRDHDLKIKEEPTAPPKKKGRGPAPRWYISTEELDSLSSYMRGRLTLEKVNIAINEVASYADGNAHLVACPKKKLSEDTWEKALELRDIAARESVKGRHFFLETDIKGPGLKLDTTGKAILTVRASTIMLYMLPLKLPYWIE”, the “soluble on expression in E. coli” value is reported as “soluble”. For “MGSDKIHHHHHHMKGLDYCRQKAEESRSSFLSGFRFLTQEKQDAVTVLYAFCRELDDVVDECSNPDVAQATLNWWRGDLDNAFGGAMPEHPVNQALRQVKETFKLPKYELEALIDGMQMDLVQARYGSFEELKLYCRRVAGVVGCLIARILGFSDGKTLEYADKMGLALQLTNIIRDVGEDARRGRIYLPMEEMQRFDVPASVILQCSPTGNFAELMAFQIKRARETYREAVSLLPDADKKAQKVGLVMAAVYYALLNEIDRDGAQNVLKYKIALPSPRKKRIALKTWLFGFKPRPGTPERA”, the “soluble on expression in E. coli” value was “not soluble”. In the case of “MGSDKIHHHHHHMERIEAGMSVMTLKKQTYRVIAVINQGQELLVRAHEPETADIEIIPVTTVVQVTEQNSTGDAAVALDTVTVVGERYVDDIVATLTTLRVGMAVLLQRESGNQYDDNAISVWTLQHAKLGYIARYQNQPYATLMDQGQRLYGIVTVLDQQKQHLELMLWRTTAVPSPIEALQIRQRLAKPRTNLGAVPTHSLQTPLGTIVMMCNGHPIKYQQVPLSPWLTPADELHVTKRYLLTPDWSQVPPDSLITCQVTAKADVVQRWQNEHISAAVLTNASSFYVVGISAQTKTGLNDNLVDDAAQPAVIYRVGQVSAHMQAGFMVSWAPFGDPRVQPALKLALHFSSQPLVPYHPVTPSRTNATFTQQELAALLVSALPNYQGGQRLEPSVTTITVEKLRQTLGDQTYHALANYQRHVQLVAGSTEGVNETLLQALIHAVTYHELTTMHYYQPTVGMVDQVIYPIQLFSTTTKDEDDAQLVGCLALYNYETFEIQQVPLTAIARIAIIADPEHPQTTPETESPDWLRIFLHGWNDDF”, the “soluble on expression in E. coli” value is reported as “not soluble”. With “MTAAIAAPAYDAIVIGSGIGGLVTATQLAAKGAKVLVLERYLIPGGSAGWFEREGYRFDFGASIIFGFGDPGTTNLLTPPLADVGQALETIPDPVQIHYHLPNQLDLKVHRDYEAFLQELIAQFPQEAEGIRRFYDECWQVFNCLNAMPLLSLEEPKYLFNVFLQHPLACLGLVKYLPQNVGDIARRYIRNPDLLKFIDMECYCWSVVPATMTPMINAGMVFSDRHYGGINYPKGGVGRIAEKLVAGLEAKGSSIRYKARVTRILTEKGRAIGVELADGEKLYAKRIISNATRWNTFG” the “soluble on expression in E. coli” value was “soluble”. In the case of “GMDQESNATSQDILKQHAAHYESDMGGLPEALVQLAEYAPETFDAYSRMRTTMLKSEADGAKLPLKYKHLILVVLDAIRDEPIGIVNHTRAAMNAGLSVDELIEGILLGIIVYGMPAWGKTGRKAVTFAVEFEKELAGKRT”, the “soluble on expression in E. coli” value is reported as “soluble”. For “FVLTPGNPRWENTHLTYRIENYTPDLSREDVDRAIEKAFQLWSNVSPLTFTKVSEGQADIMISFVRGDHRDNSPFDGPGGNLAHAFQPGPGIGGDAHFDEDERWTKNFRDYNLYRVAAHELGHSLGLSHSTDIGALMYPNYIYTGDVQLSQDDIDGIQAIYGPSENPVQPSGPQTPQVCDSKLTFDAITTLRGELMFFKDRFYMRTNSFYPEVELNFISVFWPQVPNGLQAAYEIADRDEVRFFKGNKYWAVRGQDVLYGYPKDIHRSFGFPSTVKNIDAAVFEEDTGKTYFFVAHECWRYDEYKQSMDTGYPKMIAEEFPGIGNKVDAVFQKDGFLYFFHGTRQYQFDFKTKRILTLQKANSWFNCRKN”, the “soluble on expression in E. coli” value was “soluble”. For “VKNPSLICAPVMADSIDKMVIETSKAHELGADLVEIRLDWLKDFNPLEDLKTIIKKSPLPTLFTYRPKWEGGQYEGDENERRDVLRLAMELGADYIDVELQVASEFIKSIDGKKPGKFKVIVSSHNYQNTPSVEDLDGLVARIQQTGADIVKIATTAVDIADVARMFHITSKAQVPTIGLVMGERGLMSRILCSKFGGYLTFGTLDSSKVSAPGQPTIKDLLDLYNFRRIGPDTKVYGIIGKPVSHSKSPIVHNQAFKSVDFNGVYVHLLVDNLVSFLQAYSSSDFAGFSCTIPHKEAALQCCDEVDPLAKSIGAVNTILRRKSDGKLLGYNTDCIGSISAIEDGLRSSGDPSSVPSSSSPLASKTVVVIGAGGAGKALAYGAKEKGAKVVIANRTYERALELAEAIGGKALSLTDLDNYHPEDGMVLANTTSMGMQPNVEETPISKDALKHYALVFDAVYTPRITRLLREAEESGAITVSGSEMFVRQAYEQFEIFTGLPAPKELYWQIMSKYGSRENLYFQ”, the “soluble on expression in E. coli” value was “soluble”. For “MGSDKIHHHHHHMEDFWRIRATDTAWKGVLHLASPRRYSRGEVIIRAGEMVDSLFYLESGEVRMIRTSMEGSEKILMYIEEGTLFGETPFFTGQPILSTFVCSRPAVIWRFSRHSVYADLLPNHPEIVSSLLHTFAAKVSTLSNQSASLGLQNVAERLCTFLYVTSGESISGAHGAELKLSMKMRDIANLLGVHRTTLYKAIRDLEKEGVLENFTRDSVRIADVTRFLEMVHK”, the “soluble on expression in E. coli” value was “not soluble”. With “MNVKSRQQENAEATREALLESALSAFIEHGYGGVSIDAIAREARVTKGAFYHHFGSKQELLAECYERQVRTIAEDLDRVPAHVDKWAEAAALAEAFIDSVMARGKRQLSLQEVITVVGWERWKRIDSRHTLRYVGRLVDELAASGELKDYRRETLVGQLYGFLTQAAMSLRDARNKRQAANEVKAIIRDFLYSLRRG” the “soluble on expression in E. coli” value was “not soluble”.
